Laboratory results published in patent publication US20210253725A1 (BIONTECH, published 2021).
Residue numbers refer to the chain shown, from its start. Numbers in names are those of the source. Values belong to the binder of their own block, whether it stands above or below them.

Assays:
[1] = target: T1, CD27 expressed on the cell surface (HT1080_CD27 cells) (human, UniProt P26842 20-260); assay: cell-based or functional assay
T1 sequence (looked up): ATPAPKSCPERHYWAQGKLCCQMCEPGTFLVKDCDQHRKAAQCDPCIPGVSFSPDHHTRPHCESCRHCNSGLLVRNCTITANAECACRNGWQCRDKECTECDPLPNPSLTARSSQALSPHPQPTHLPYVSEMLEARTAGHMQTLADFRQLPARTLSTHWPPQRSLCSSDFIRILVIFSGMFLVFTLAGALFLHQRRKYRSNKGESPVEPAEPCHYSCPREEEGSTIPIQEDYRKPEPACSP

[2] = target: T2, CD27 protein (His-tagged, Sino Biological Inc. 10039-H08B1) (human, UniProt P26842 20-192); assay: ELISA on coated His-tagged CD27
T2 construct: bought; coated onto ELISA plates; also called human CD27; recombinant protein; not shown: His tag
T2 sequence (looked up): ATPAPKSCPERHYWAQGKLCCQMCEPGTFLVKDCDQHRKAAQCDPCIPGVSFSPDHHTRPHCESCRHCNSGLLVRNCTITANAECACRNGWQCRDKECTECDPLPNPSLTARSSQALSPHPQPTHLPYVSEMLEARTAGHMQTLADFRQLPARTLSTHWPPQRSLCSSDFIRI

[3] = target: T1, CD27 expressed on the cell surface …; assay: cellular binding assay, HT1080_CD27 cells
Further: test concentration or dose not given here.

IL-8, cross-linked by F(ab')2 fragment [abs. corr.] [1]: 1.07 abs. corr.
IL-8 [abs. corr.] [1]: 0.218 abs. corr.
ELISA [abs. corr.] [2]: 3.35 abs. corr.
Cellular binding assay [RFU] [3]: 372 RFU
B1: P018.S.07.A.B06 (antibody, V domains shown)
VH: QEQLVESGGDLVKPGTSLTLTCKASGLDFSSTPYMCWVRQAPGKGLEWIACIYTGSVIYTYYASWAKDRFTISKISSTSVTLQMTSLTVADTATYFCARSPAGYAAYGYGGFNLWGPGTLVTVSS
VL: AIEMTQTPFSVSAAVGGTVTINCQASQNIYNNLAWYQQKPGQPPKLLIYGASTLESGVPSRFEGSGSGTEYTLTISDLESDDAATYYCQSAYYSSSATDMAFGGGTEVVVK
notes: V regions on human Ig constant parts; also called AB27_118

IL-8, cross-linked by F(ab')2 fragment [abs. corr.] [1]: 1.9 abs. corr.
IL-8 [abs. corr.] [1]: 0.369 abs. corr.
ELISA [abs. corr.] [2]: 3.47 abs. corr.
Cellular binding assay [RFU] [3]: 336 RFU
B4: P018.S.05.A.H02 (antibody, V domains shown)
VH: QEQLEESGGRLVTPGGTLTLTCTASGFSLNSYDMSWVRQAPGKGLEWIGYIWSDGNTDYASWAAGRFTASRASTTVDLKMTSLTTEDTATYFCARGYTGFFLWGPGTLVTVSS
VL: DVVMTQTPSSVSAAVGGTVTIKCQASQSIGSSYLSWYQQKPGQPPKLLIYEASTLASGVPSRFKGSGSGTEFTLTISDLESDDAATYYCQCTYYGGSWRVAFGGGTEVVVK
notes: V regions on human Ig constant parts; also called AB27_94

IL-8, cross-linked by F(ab')2 fragment [abs. corr.] [1]: 2.49 abs. corr.
IL-8 [abs. corr.] [1]: 1.6 abs. corr.
ELISA [abs. corr.] [2]: 3.35 abs. corr.
Cellular binding assay [RFU] [3]: 320 RFU
B6: P018.S.04.A.F04 (antibody, V domains shown)
VH: QSVEESGGRLVTPGTPLTLTCTVSGFSLSNYAMSWVRQAPGKGLEWIGIIYASGTTYYARWAKGRFTISRTSTTVDLKISSPTTEDTATYFCAREYDSYDYAYGSSIYAFDPWGPGTLVTVSS
VL: AYDMTQTPSSVSAAVGGTVTIKCQASESIYSNLAWYQQKPGQRPKLLIYRASTLASGVSSRFKGSGSGTQFTLSISGVESADAATYYCQQGYSSSNVDNVFGGGTEVVVK
notes: V regions on human Ig constant parts; also called AB27_77

IL-8, cross-linked by F(ab')2 fragment [abs. corr.] [1]: 1.58 abs. corr.
IL-8 [abs. corr.] [1]: 0.373 abs. corr.
ELISA [abs. corr.] [2]: 3.36 abs. corr.
Cellular binding assay [RFU] [3]: 317 RFU
B7: P018.S.03.A.C02 (antibody, V domains shown)
VH: QSVEESGGRLVTPGTPLTLTCTVSRFSLSTSTMTWVRQAPGKGLEWIGIINGGGSAYYANWAKGRFTISKTSTTVDLKITSPTTEDTATYFCARSYDSYDDIYGTSRLYAFDPWGPGTLVTVSS
VL: B6 VL with S9A, S12E, A13V, A14V, K22S, S31A, R43P, T53Y, S74T, V100S
notes: V regions on human Ig constant parts; also called AB27_44

IL-8, cross-linked by F(ab')2 fragment [abs. corr.] [1]: 1.11 abs. corr.
IL-8 [abs. corr.] [1]: 0.539 abs. corr.
ELISA [abs. corr.] [2]: 3.35 abs. corr.
Cellular binding assay [RFU] [3]: 351 RFU
B9: P018.S.05.A.C06 (antibody, V domains shown)
VH: QSLEESGGRLVTPGTPLTLTCTASGFSLSNYYITWVRQAPGEGLEWIGTISTAGNTYFASWAKGRFTISRTSTTVDLKMTSPTTEDTATYFCARDGAGDSNYYRNLWGQGTLVTVSS
VL: DIVLTQTPASVEAAVGGTVTIKCQASQSIDRFLAWYQQKPGQPPKLLIVDASTLESGVPSRFSGSGSGTEFTLTISDLESDNAATYYCQQGYSISDIDNVFGGGTEVVVK
notes: V regions on human Ig constant parts; also called AB27_85

Second part, the binder before the results:

B2: P018.S.01.A.D04 (antibody, V domains shown)
VH: B4 VH with N30S, S31N
VL: B4 VL with A13T, G17D, E51K, A52T
notes: V regions on human Ig constant parts; also called AB27_12
IL-8, cross-linked by F(ab')2 fragment [abs. corr.] [1]: 2.2 abs. corr.
IL-8 [abs. corr.] [1]: 0.175 abs. corr.
ELISA [abs. corr.] [2]: 3.4 abs. corr.
Cellular binding assay [RFU] [3]: 341 RFU

B3: P018.S.01.A.G02 (antibody, V domains shown)
VH: B4 VH with N30S, S61T
VL: B4 VL with E51K, A52T
notes: V regions on human Ig constant parts; also called AB27_21
IL-8, cross-linked by F(ab')2 fragment [abs. corr.] [1]: 1.88 abs. corr.
IL-8 [abs. corr.] [1]: 0.848 abs. corr.
ELISA [abs. corr.] [2]: 3.67 abs. corr.
Cellular binding assay [RFU] [3]: 363 RFU

B5: P018.S.04.A.H04 (antibody, V domains shown)
VH: B7 VH
VL: B6 VL with S9A, S12E, A13V, K22N, R43P, T53Y, S74T, N96D, V100A
notes: V regions on human Ig constant parts; also called AB27_79
IL-8, cross-linked by F(ab')2 fragment [abs. corr.] [1]: 1.98 abs. corr.
IL-8 [abs. corr.] [1]: 0.579 abs. corr.
ELISA [abs. corr.] [2]: 3.46 abs. corr.
Cellular binding assay [RFU] [3]: 291 RFU

B8: P018.S.01.A.F05 (antibody, V domains shown)
VH: QEQLEESGGDLVKPEGSLTLTCTASGFSFSSSYWICWVRQAPGKGLEWIGCIITGRGNTYYANWAKGRFTISKTSSTTVTLQMTSLTAADTAIYSCARGPGGADPVNLWGPGTLVTVSS
VL: DVVMTQTPASVSEPVGGTVTIKCQASQSIYSNLAWYQQKPGQPPKLLIYRASTLTSGVPSRFKGSGSGTQFTLTISDLESADAATYYCQCTYDGSSYVPNAFGGGTEVVVK
notes: V regions on human Ig constant parts; also called AB27_20
IL-8, cross-linked by F(ab')2 fragment [abs. corr.] [1]: 1.18 abs. corr.
IL-8 [abs. corr.] [1]: 0.559 abs. corr.
ELISA [abs. corr.] [2]: 3.35 abs. corr.
Cellular binding assay [RFU] [3]: 369 RFU
